Assay results reported in patent US20140271653A1 (Regeneron, published 2014).

Legend:
[1] = target: T1, RSV-F of RSV subtype A strain A2 (1540) (respiratory syncytial virus subtype A, …, UniProt P03420 26-574); test: cell-based or functional assay
[2] = target: T1, RSV-F of RSV subtype A strain A2 (1540); test: cell-based or functional assay; remark: listed apart in the source
[3] = target: T1, RSV-F of RSV subtype A strain A2 (1540); test: cell-based or functional assay; remark: listed apart in the source
[4] = target: T2, RSV-F of RSV subtype A strain Long (respiratory syncytial virus subtype A, …, UniProt P12568 26-574); test: cell-based or functional assay
[5] = target: T3, RSV-F of RSV subtype B strain 1580 (respiratory syncytial virus subtype B, …); test: cell-based or functional assay
[6] = target: T4, RSV-F of RSV subtype B strain 9320 (respiratory syncytial virus subtype B, …); test: cell-based or functional assay
[7] = target: T1, RSV-F of RSV subtype A strain A2 (1540); test: cell-based or functional assay; remark: listed apart in the source
[8] = target: T3, RSV-F of RSV subtype B strain 1580; test: cell-based or functional assay; remark: listed apart in the source
[9] = target: RSV-F S173Y of escape mutant RSV/A S173Y (respiratory syncytial virus subtype A, …, UniProt P03420 26-574); test: cell-based or functional assay
[10] = target: RSV-F S173T of escape mutant RSV/B S173T (respiratory syncytial virus subtype B, …); test: cell-based or functional assay
[11] = target: RSV-F T174K of escape mutant RSV/B T174K (respiratory syncytial virus subtype B, …); test: cell-based or functional assay
[12] = target: RSV-F S173T/T174K of escape mutant RSV/B S173T/T174K (respiratory syncytial virus subtype B, …); test: cell-based or functional assay
[13] = target: T1, RSV-F of RSV subtype A strain A2 (1540); test: cell-based or functional assay; remark: listed apart in the source
[14] = target: T2, RSV-F of RSV subtype A strain Long; test: cell-based or functional assay; remark: listed apart in the source
[15] = target: T4, RSV-F of RSV subtype B strain 9320; test: cell-based or functional assay; remark: listed apart in the source
[16] = target: RSV-F of RSV subtype B strain 18537 (respiratory syncytial virus subtype B, …, UniProt P13843 26-574); test: cell-based or functional assay
[17] = target: RSV-F of RSV subtype B strain 1400 (respiratory syncytial virus subtype B, …); test: cell-based or functional assay
[18] = target: RSV-F of RSV subtype B strain 1A2 (respiratory syncytial virus subtype B, …); test: cell-based or functional assay
[19] = target: RSV-F of RSV subtype A clinical isolate A2001/2-20 (respiratory syncytial virus subtype A, …); test: cell-based or functional assay
[20] = target: RSV-F of RSV subtype A clinical isolate A2001/3-12 (respiratory syncytial virus subtype A, …); test: cell-based or functional assay
[21] = target: RSV-F of RSV subtype A clinical isolate A1997/12-35 (respiratory syncytial virus subtype A, …); test: cell-based or functional assay
[22] = target: RSV-F of RSV subtype A clinical isolate A1998/3-2 (respiratory syncytial virus subtype A, …); test: cell-based or functional assay
[23] = target: RSV-F of RSV subtype A clinical isolate A1998/12-21 (respiratory syncytial virus subtype A, …); test: cell-based or functional assay
[24] = target: RSV-F of RSV subtype A clinical isolate A2000/3-4 (respiratory syncytial virus subtype A, …); test: cell-based or functional assay
RSV-F.mmh = target: T5, RSV-F.mmh (Respiratory Syncytial Virus); test: SPR (Biacore), mAb captured via Fc, soluble RSV-F.mmh injected, 25 C
T5 construct: also called recombinant RSV-F; soluble monomeric RSV-F

B1: Control I (palivizumab sequence) (antibody, V domains shown)
VH: QVTLRESGPALVKPTQTLTLTCTFSGFSLSTSGMSVGWIRQPPGKALEWLADIWWDDKKDYNPSLKSRLTISKDTSKNQVVLKVTNMDPADTATYYCARSMITNWYFDVWGAGTTVTVSS
VL: DIQMTQSPSTLSASVGDRVTITCKCQLSVGYMHWYQQKPGKAPKLLIYDTSKLASGVPSRFSGSGSGTEFTLTISSLQPDDFATYYCFQGSGYPFTFGGGTKLEIKR
notes: also called Control 1; SYNAGIS
For B1, the “IC50 of blocking viral fusion (antibody added after viral attachment at 4 C, infection read by ELISA)” value [1] was 1 nM, the “IC50 [pM] for RSV A2 Neutralization, Trial 1” value [2] was 1820 pM and the “IC50 [pM] for RSV A2 Neutralization, Trial 2” value [2] was 950 pM. The “IC50 [pM] for RSV A2 Neutralization, Trial 3” value [2] was 290 pM, the “IC50 [pM] for RSV A2 Neutralization, Trial 5” value [2] was 160 pM and the “IC50 [pM] for RSV A2 Neutralization, Trial 6” value [2] was 500 pM. The “IC50 [pM] for RSV A2 Neutralization, Trial 7” value [2] was 250 pM, the “RSV-A2 (1540) Neutral. IC50 [pM]” value [3] was 360 pM and the “RSV-Long Neutral. IC50 [pM]” value [4] was 536 pM. The “RSV - 1580 Neutral. IC50 [pM]” value [5] was 375 pM, the “RSV-9320 Neutral. IC50 [pM]” value [6] was 460 pM and the “Neutralization IC50, pM (microneutralization, wt subtype A)” value [7] was 1140 pM. The “Neutralization IC50, pM (microneutralization, wt subtype B)” value [8] was 1900 pM, the “Neutralization IC50, pM (microneutralization, escape mutant)” value [9] was 1710 pM and the “Neutralization IC50, pM (microneutralization, escape mutant)” value [10] was 1900 pM. For the same binder, the “Neutralization IC50, pM (microneutralization, escape mutant)” value [11] was 640 pM, the “Neutralization IC50, pM (microneutralization, escape mutant)” value [12] was 980 pM and the “IC50 (pM), RSV micro-neutralization, A/A2” value [13] was 2080 pM. For the same binder, the “IC50 (pM), RSV micro-neutralization, A/Long” value [14] was 752 pM, the “IC50 (pM), RSV micro-neutralization, B/9320” value [15] was 338 pM and the “IC50 (pM), RSV micro-neutralization, B/18537” value [16] was 1190 pM. For the same binder, the “IC50 (pM), RSV micro-neutralization, B/1400” value [17] was 113 pM, the “IC50 (pM), RSV micro-neutralization, B/1A2” value [18] was 223 pM and the “IC50 (pM), RSV micro-neutralization, clinical isolate” value (shortened to “IC50 (pM) … clinical isolate”) [19] was 935 pM. For the same binder, the “IC50 (pM) … clinical isolate” value [20] was 1260 pM, the “IC50 (pM) … clinical isolate” value [21] was 478 pM and the “IC50 (pM) … clinical isolate” value [22] was 344 pM. For the same binder, the “IC50 (pM) … clinical isolate” value [23] was 580 pM, the “IC50 (pM) … clinical isolate” value [24] was 899 pM and the Kd (RSV-F.mmh) was 38.1 nM. For the same binder, the “t½” value (RSV-F.mmh) was 4 min.
